Reference: WO2019198731A1

Target: three HER2 antigens (HER2 fragment proteins used for panning)
Assay: monoclonal phage ELISA on immobilised HER2 antigens

B1: H44 clone (VHH displayed on monoclonal M13 phage) (VHH)
VHH: QVQLVESGGTLVQAGGSLRLSCAASGRTFSSYAMGWFRQAPGKEREFVAAIRLKTDYSDSVKGRFTISRDNAKNTVYLQMNSLKPEDTAVYYCAAWLRRGYGASWYLTGADPRYWGRGTRVTVSS
How did the abs. at 450 nm turn out when B1 was run?
Its abs. at 450 nm is over 1.5.
